{
  "source": "paper PMC3765442",
  "about": "(PLoS ONE, 2013)",
  "key": {"[1]": {"biological_target": "the molecule itself", "assay": "AUC; absorption sedimentation equilibrium at 37°C; 1 to 60 µM (monomer equivalents); 14'000, 17'000 and 26'000 rpm; buffer as for velocity runs but without BSA; dimer to monomers"}, "[2]": {"biological_target": "the molecule itself", "assay": "AUC; fluorescence sedimentation velocity (GFP signal at 488 nm), 22°C; dilution series from about 500 to about 0.5 nM (monomer equivalents); 20 mM Tris-HCl pH 7.5, 300 mM NaCl, 0.2 mg/ml BSA, 2 mM DTT or 0.1 mM TCEP; samples incubated 16 hours at 22°C; dimer to monomers; apparent Kd"}, "[3]": {"biological_target": "the molecule itself", "assay": "SEC-MALS; Superdex 200 10/30 with in-line multi-angle light scattering; 1 to 4 mg/ml injected in 100 µl (about 1 µM at the peak); 20 mM Tris-HCl pH 7.5, 300 mM NaCl, 2 mM DTT; room temperature; single experiments"}},
  "data": [
    {"protein": "EB1c-GFP (C-terminal domain of human EB1, Asp191-Tyr268, C-terminally EGFP-His-tagged) (domain or fragment, UniProt Q15691 191-268, looked up, Calculated monomer mass 38.3 kDa; also called C-terminal domain of EB1; not shown: EGFP, C-terminal, kept) DEAAELMQQVNVLKLTVEDLEKERDFYFGKLRNIELICQENEGENDPVLQRIVDILYATDEGFVIPDEGGPQEEQEEY", "values": [
      {"measurement": "stoichiometry N", "setting": "[1]", "value": 2}
    ]},
    {"protein": "EB1c-GFP[A206K] (domain or fragment, human, UniProt Q15691 191-268, looked up, As m3, but Ala206 of the EGFP tag is mutated to lysine; the EB1c part is unchanged; not shown: EGFP with A206K, C-terminal, kept) DEAAELMQQVNVLKLTVEDLEKERDFYFGKLRNIELICQENEGENDPVLQRIVDILYATDEGFVIPDEGGPQEEQEEY", "values": [
      {"measurement": "stoichiometry N", "setting": "[2]", "value": 2}
    ]},
    {"protein": "EB3c-GFP (C-terminal domain of human EB3, Ala200-Tyr281, C-terminally EGFP-His-tagged) (domain or fragment, UniProt Q9UPY8 200-281, looked up, Calculated monomer mass 38.7 kDa; also called C-terminal domain of EB3; not shown: EGFP, C-terminal, kept) AQILELNQQLVDLKLTVDGLEKERDFYFSKLRDIELICQEHESENSPVISGIIGILYATEEGFAPPEDDEIEEHQQEDQDEY", "values": [
      {"measurement": "stoichiometry N", "setting": "[3]", "value": 2},
      {"measurement": "Kd", "setting": "[2]", "value": 2, "unit": "nM"}
    ]}
  ]
}
